Drawing on US20250333512A1, this text covers AUC (IL-2 ELISA) and EC50 (IL-2 ELISA) for six substances.

Holding throughout (assay): cell-based or functional assay
Design in all cases: AUC (IL-2 ELISA): unit not given beside the values
In general terms: In an ELISA, binding on a coated surface is turned into a signal by an enzyme label.

For assay [1], the target named is chimeric receptor containing a rhesus macaque FcγRIIB ectodomain and the CD3ζ intracellular signaling domain (rhesus macaque).
The target of assay [2] is chimeric receptor containing a rhesus macaque FcγRIIA ectodomain and the CD3ζ intracellular signaling domain (rhesus macaque).
The target in assay [3] is chimeric receptor containing a rhesus macaque FcγRIII ectodomain and the CD3ζ intracellular signaling domain (rhesus macaque) (UniProt A3RFZ7).
Sequence of chimeric receptor containing a rhesus macaque FcγRIII ectodomain and the CD3ζ intracellular signaling domain (rhesus macaque) (A3RFZ7 whole entry, change not shown, the tested form may be a part): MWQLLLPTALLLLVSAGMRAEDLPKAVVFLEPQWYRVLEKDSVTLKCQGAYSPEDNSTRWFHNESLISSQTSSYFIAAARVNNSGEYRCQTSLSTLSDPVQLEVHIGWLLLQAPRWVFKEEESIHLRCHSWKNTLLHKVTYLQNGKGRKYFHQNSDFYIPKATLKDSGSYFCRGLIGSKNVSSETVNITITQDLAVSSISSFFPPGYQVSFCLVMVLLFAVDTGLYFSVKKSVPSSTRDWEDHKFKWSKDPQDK
Assay [4] deals with chimeric receptor containing a rhesus macaque FcγRI ectodomain and the CD3ζ intracellular signaling domain (rhesus macaque).

Sequence of PGT121 (Mammalian) (antibody) (heavy): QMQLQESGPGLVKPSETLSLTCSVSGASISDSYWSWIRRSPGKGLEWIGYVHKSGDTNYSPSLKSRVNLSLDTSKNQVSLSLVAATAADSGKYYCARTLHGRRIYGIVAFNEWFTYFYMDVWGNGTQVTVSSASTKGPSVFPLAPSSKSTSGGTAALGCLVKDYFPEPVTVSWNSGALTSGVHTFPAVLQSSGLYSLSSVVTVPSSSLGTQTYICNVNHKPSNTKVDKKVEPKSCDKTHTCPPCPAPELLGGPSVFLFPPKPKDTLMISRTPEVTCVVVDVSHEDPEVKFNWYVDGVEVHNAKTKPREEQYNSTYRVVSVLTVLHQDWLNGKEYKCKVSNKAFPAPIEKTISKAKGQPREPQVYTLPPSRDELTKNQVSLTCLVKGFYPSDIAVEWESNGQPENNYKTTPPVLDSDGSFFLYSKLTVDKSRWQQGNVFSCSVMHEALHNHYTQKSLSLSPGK
Sequence of PGT121 (Mammalian) (antibody) (light): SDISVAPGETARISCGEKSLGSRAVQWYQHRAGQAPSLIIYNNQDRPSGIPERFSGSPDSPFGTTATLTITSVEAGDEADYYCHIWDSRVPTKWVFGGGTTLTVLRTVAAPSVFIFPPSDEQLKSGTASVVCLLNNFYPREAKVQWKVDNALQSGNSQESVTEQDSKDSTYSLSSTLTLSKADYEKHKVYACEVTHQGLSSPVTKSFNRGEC

Consider Nb PGT121-KDEL (antibody), for which the AUC (IL-2 ELISA) is 0.4 in assay [1], 0.401 in assay [2], 0.934 in assay [3] and 4.46 in assay [4]. Also, the EC50 (IL-2 ELISA) was greater than 50 µg/mL in assay [1], greater than 50 µg/mL in assay [2], 3.57 µg/mL in assay [3] and 0.548 µg/mL in assay [4].

Turning to Nb PGT121-YTE (antibody), the AUC (IL-2 ELISA) in assay [1] came to 0.256; in assay [2], 0.246; in assay [3], 0.226; in assay [4], 3.99. Also, the EC50 (IL-2 ELISA) was greater than 50 µg/mL in assay [1], greater than 50 µg/mL in assay [2], greater than 50 µg/mL in assay [3] and 0.735 µg/mL in assay [4].

In the case of Nb VRC01-KDEL (antibody), the AUC (IL-2 ELISA) in assay [1] is 0.355; in assay [2], 0.334; in assay [3], 0.37; in assay [4] it was 4.69. For the same substance, the EC50 (IL-2 ELISA) is greater than 50 µg/mL in assay [1], greater than 50 µg/mL in assay [2], greater than 50 µg/mL in assay [3] and 0.419 µg/mL in assay [4].

For PGT121 (Mammalian) (antibody), the AUC (IL-2 ELISA) came to 0.636 in assay [1], 3.74 in assay [2] and 3.55 in assay [4]. Besides, the EC50 (IL-2 ELISA) is 3.58 µg/mL in assay [1], 1.72 µg/mL in assay [2] and 0.619 µg/mL in assay [4].

For VRC07-523 (Mammalian) (antibody), the AUC (IL-2 ELISA) was determined as 1.26 in assay [1], 4.15 in assay [2], 1.46 in assay [3] and 4.14 in assay [4]. Besides, the EC50 (IL-2 ELISA) in assay [1] worked out at 2.1 µg/mL; in assay [2], 0.722 µg/mL; in assay [3], 1.21 µg/mL; in assay [4], 0.326 µg/mL.

For the substance VRC07-523-LS(Mammalian) (antibody), the AUC (IL-2 ELISA) in assay [1] is 1.36; in assay [2], 4.5; in assay [3] it was 1.82; in assay [4] it was 4.37. The EC50 (IL-2 ELISA) in assay [1] was found to be 1.95 µg/mL; in assay [2], 0.853 µg/mL; in assay [3] it was 0.637 µg/mL; in assay [4] it was 0.303 µg/mL.
